Experiment: soluble fraction after stress (log2 fold change); higher = more stays soluble; pooled small domains, quantitative proteomics
Details: stress: 75 degC
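Further: 20 min heating vs room temperature control held 20 min.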

Going from “HMNIGELINKKRTELGLTLEEVGNAVGVSKSTVKKWEDGFISNMRRDKISKLAKVLEMNPVSLITGE” to “HMNIGSKLRYLIEEANITQRQLADALHISPSALNGYINQGKEPDYATLVRIADYFHTSTDYLLGHSNIR”, the “soluble fraction (log2)” value falls from 0.00376 to -0.806.

First: HMNIIATHTVPAIEQKIRLQEYAISIFPQINSRSALKKAIAKKLVLLDGERASTADWIQPGQKIELLEDK
Second: HMNILAPFWERFGLSAFAAGNYDRAEGYFRKLEQKDPNSMSVLRNLGLILMAKGDAEGAEAYLLREEKL
The “soluble fraction (log2)” value of the first is lower: -1.37 for the first, -0.755 for the second.

Going from “HMNILKKDKRLWDENNLNKPLLFELLENYDKEIFELLLTDKDIKAKFFVQAGESYVFKYDDFRFAIEQN” to “HMNIMAQDWISSPMGPISFKSNQHGLVKIGWGEVPRENTEQPNLEFTRKWLVDYFEGKASPLPYF”, the “soluble fraction (log2)” value rises from -3.32 to -0.623.

First: HMNIQGIFGRNLKQKRLEKGMTQEQLAEKAGVSTDTVKRYESGKYDGIRLDMAWYMANALDTPLQALLPP
Second: HMNISALKGKIGEVYLKIPAHNAGKGKVLISLKGTHHELYAITRSGEDISSGEFVKVIEIEDEILVVEK
The “soluble fraction (log2)” value of the first is higher: 0.598 for the first, -2.05 for the second.

Compared with “HMNITFAENIKQFRKAKSMSMEELGKRLGKAKSSISAWENGKRTPKINELKSISEALGVTISQLLGF”, “HMNIYIEFGRRLAFIRQNSKLSQSQIAQKLNIAQSTYAGYEKGVRKIPLEIIVQLSKILNISPTILILG” is lower in “soluble fraction (log2)” value: -1.71 for the first, -3.84 for the second.

Compared with “HMNKADFLRKLDRELSVLDQEERKEILSFYEERFYTGTNYENKTELDIINELENPEIIAKNVLEEYGV”, “HMNKDEFLRRLEDALSGEVPASVIRENLNYYADYLSQELGKGRTMDEIIEEIGEPNIVARTIINSAEAA” is higher in “soluble fraction (log2)” value: -0.253 for the first, 0.184 for the second.

Going from “HMNKDWQDEVALQRYTMITPLLSEDLDNAKRIAMREKIAQDNLTTARSLYRYEKAYRENGFQGLRPTD” to “HMNKEIEDYVATYSSMKAKEAAAIFDTMTSDLDLVAKILEAMSADDRAKILEQMNEENAARLTKMMD”, the “soluble fraction (log2)” value rises from -0.252 to 0.0551.

Compared with “HMNKEQIASNIAEARKRSGLNQSELARRLGIRPQSVQQWEKGTATPKLDRLTAIAQVLGVSLESLTG”, “HMNKFADLAGNIIYNENGVEVFNFGKYKGQPVAEVFKKDIGYYGWIQNADFPRYTKKVFTAIQLKSK” is lower in “soluble fraction (log2)” value: -0.0463 for the first, -1.28 for the second.

Compared with “HMNKIDVVEVDMSKPYEDMTVTELQNVILGKLASNGPVTDQMKKDVAENIYHDSLVNWAKSF”, “HMNKIENLSQTILNILRKDHSQAFNYKQIAAKLQLDDPSSRNQIVKKLKDLQGKGTIQEIERGKYILTP” is lower in “soluble fraction (log2)” value: 0.883 for the first, 0.394 for the second.

Compared with “HMNKITIDQAKEIALNHAKLTAEQVSFIRTESEFDDGIEKYNIEFYYNNQKYDYDINAVNGQIIQYDLEG”, “HMNKITIEEAKSIALKHSNLDESQVSFIRSEYDFDNGIEKYEIEFYYNNNKYEYEINAKTGDIISYDYDI” is lower in “soluble fraction (log2)” value: 0.159 for the first, -1.02 for the second.

Going from “HMNKKAAYKDMAGYFAEMKSKDAADILSRLKDEDIIGIFNEMPRDMVAEMLQKMDRDKATTLTRKML” to “HMNKKEQYQNIISNFLEKMSEEDRLIFNMHFFKSINISQIARSIDREGYYVKTKIENLLADLKSLMIGNNL”, the “soluble fraction (log2)” value falls from 0.444 to -2.95.

Going from “HMNKKETRLNNFIHFLKIRNSITVKEMANHLNVSEMTVRRDIKELTADHTINFENGKIMFNPQSSL” to “HMNKLIIDAAEDKIFFMIMNNDISYNISHENTKINFEKLIILINDFLSSKKLKINDITGLYV”, the “soluble fraction (log2)” value rises from -1.82 to 0.123.

First: HMNKNIKIPNISNLSREDAESVLKESGISVSTEIKEVESDTIEKGKVVKTEPSIGSTVKQGRTITIYISSG
Second: HMNKRYKVQVTTDNLKIRKGAGTSYPVVGHITDKGTYTIVETSGKWGKLLSGAGWIYLSYTKK
The “soluble fraction (log2)” value of the first is higher: 0.161 for the first, -2.13 for the second.

First: HMNKTEIISILEKIVLPTQIRNINIFGSEVIIDLNIDNPSLHAKKKLEKSIINSFDKNHKIIINFNVE
Second: HMNKTLTEQIYDELKSAIIELELKPGEFVTEEYLAEQLGVSRTPLKSAISKLIFEGLMAYEVGKGTYIS
The “soluble fraction (log2)” value of the first is higher: -0.238 for the first, -1.11 for the second.

Going from “HMNKVQTFIIEKHIKEVFEHTNRTYYRSGQYYFQTRDEFSMALKRFLKDREPNKKNWIDSIINRA” to “HMNKYQFESKIHIYRATKRMTQQELADLVGVSRQTIMQLERNRYNPSMMLAYGIAKVFDVTIEDLFDFSEV”, the “soluble fraction (log2)” value falls from -0.945 to -3.18.

First: HMNKYYQQLLQADPTGFIDPFKDLGTYDSRLNTFKEPVSELLNPFSGRPYSKIWQKRIETMREIFISYIKS
Second: HMNLDVEQIKKEALNQLIEIGNENDGIVTIKDFKKIDDISSLDEDDIEDIRNLLIENNIEIFE
The “soluble fraction (log2)” value of the first is lower: -2.8 for the first, 0.0781 for the second.

Going from “HMNLEQTIVLGKRLFNNALDTLGKKQRSIKNKQINKLLELLNFKNMNELYQSIGVGDKNPLLMAQMML” to “HMNLESNQYVIDISDSQVINKDEFETILNQNKTKDIVIKSNNNVTFTFEKGSMIGAEGKDNYDFSSQVNY”, the “soluble fraction (log2)” value rises from -0.775 to -0.0852.

First: HMNLFNEIEKQYQALQDRSSASLVDLRHLLLDIEELVNSPDYQALAPDQRSTLQAARKELMRRIQKQEN
Second: HMNLGDSLFHARRKQGLSQEAVAEQLGVSRQTVSKWEANETLPDIRQSKLMAKLYHTSLDELI
The “soluble fraction (log2)” value of the first is higher: 0.819 for the first, 0.0881 for the second.

Compared with “HMNLLDYTTLYVTSDGKSVSFGIAGKEIPVSYIAQEAPGTVVIDDTIRIPRKYDMEYILKRFNES”, “HMNLLGDNIRKLRLEKGLGLNEVARLANITGGYLSSIENNKRTNVGTEILESIAKAIGVSVSDFYL” is higher in “soluble fraction (log2)” value: -1.2 for the first, -0.347 for the second.

Compared with “HMNLLGERIREIRMEMGLTAKELAQRASVTPGYISQIEHDQIKPSMNVMMRIAEVLNVPMAALLM”, “HMNLLPAGTYKLKDLVTAEDEEIGAKKGDVVIAHEDTPPSDRVLGVDIFPVIHKNTSKKIYVSLEDI” is higher in “soluble fraction (log2)” value: -2.38 for the first, 0.322 for the second.

Compared with “HMNLMQIHVARPPNQLGVFSQEEVAAGLQSGRFLPTDQAWRDGMSAWTPLSQWAEFSSVVAAV”, “HMNLNLDITTYKLEELENLLKLKPNYKQEQIFEAKTKMEKFILKSNLNESKREELYIFLDNIYNKLTNNLL” is lower in “soluble fraction (log2)” value: -0.217 for the first, -2.94 for the second.

First: HMNLPISDREKELLTLLSKGLLYKEIASKLDITIGTVKQHIHNIYHKLHVSNKTEALNLFNK
Second: HMNLRLKEVLDEKNMSLVTLSEKTGIEKGNLSAISNNKKNPTVETLSKIAKALQISLAELFESPP
The “soluble fraction (log2)” value of the first is lower: -1 for the first, 0.416 for the second.

Going from “HMNLSDIETWLRELSLEKYALAFSEAEIDFETLPELTEDDLKEVGLPVGPRRKVWGAIQLLRTTD” to “HMNLSNVVIRKVQEMILSGELQEGDKLPPEREMTQRLGIGRPALREGLKSLEMLGLVERRHGLGNFIINKV”, the “soluble fraction (log2)” value rises from -1.48 to -1.05.

First: HMNLSPADFSSVRNALGLSLSTVAKESGINRNYLSNFEKKKHFLEETAKVKLRDYYMSIDPDAFAAAL
Second: HMNLVGGKINSLMTTKNVTIQDLSERSGLTVSQIELLLSGDKVPSLAVLIKIARGLGVRVGTFL
The “soluble fraction (log2)” value of the first is higher: -0.408 for the first, -1.12 for the second.

First: HMNLVRQHTDYAFRLLVALSQAPGKPISTRTLASAADVPYQFASKIMQKLHEEGLVESVMGPFGGFRLVQ
Second: HMNLWIDNTQVINDWTEGASERSGSIYLTAGVKPIKMQYFDSVLNAKAILRWQGPGINKSVVPSSALTPG
The “soluble fraction (log2)” value of the first is lower: -3.15 for the first, -1.14 for the second.

Going from “HMNMEDIADKIGRLYDNLPDDLKLMIKYRDIDDMTYDEIARKANLPIGTVRSRLHRARDILLREI” to “HMNMFGIQRRNHLLSLLQEKKSITVQEAAVIFEVAEETIRRDFRTMEGQGLIVRTHGGALLADD”, the “soluble fraction (log2)” value falls from -1.07 to -4.21.

First: HMNMMIIHVNGEKYSFQEPITISELILKLELDSRKIAIEYNLEILPRSLFEITSIKNGDKIEIVHFI
Second: HMNMPYGTVKWFNDAKGFGFIAPEDGSADVFVHFSAINSKGFRSLQEGQRVSYEVTTGPKGAQAAGVTPVT
The “soluble fraction (log2)” value of the first is lower: -3.43 for the first, -0.234 for the second.

Going from “HMNMYTVTGRLVDQDGVPQANALVTIDSSSQQTRTSPQGFYLIKVFGTEPSTIKFLVDGYDPQIVNFTP” to “HMNNDIDRVFAELTVLSQKKGYLVFDDIEKGTEDLSVNEVDWLTNRLLTSGVEIFDDVPDTIK”, the “soluble fraction (log2)” value rises from -0.466 to 0.347.

First: HMNNDSQYLATLQRYYAEHRVLPSYARMLPLLGFASKAAVKKVLERLEVVGMLERTEDGDWAPSERFFER
Second: HMNNGYSINEIAKLMKMTLKVVRRYVASGELKTTKTNNTYSISEEAFNEFKKYIEEGGDAKHAQEVADTFK
The “soluble fraction (log2)” value of the first is lower: -2.24 for the first, -1.09 for the second.

First: HMNNIGENIKKYRTKQGLSQEDFAKKSGVKYTTLTKIESGVIKKPSVLVMAKIAKALGVNIEELI
Second: HMNNIINEAQIKQWVEEFYLSVSPRPTRATMIALVHKKIKEETKDGEEGQTVSETLINNFYTALEKEHKRK
The “soluble fraction (log2)” value of the first is lower: -1.64 for the first, 0.216 for the second.

Going from “HMNNIPFIITDERLNVIQSHLVPREVLDHPDRLRRQIDRFTEENQPKTVNYWWGPEHRHIIFYGKSK” to “HMNNIYFSPVVEENNKGLRLDKFLAASFPEFSRSQLQRLILEGNVSNDDVVIADNSQKVRVGDSFQVIVPE”, the “soluble fraction (log2)” value falls from 0.377 to -0.018.

Going from “HMNNKSDLLFNHLRQRIATMENGTIFPSVRQLMTEYNVSQSTVSTAIRSLKELGLLEALSRQGMVVRKE” to “HMNNLGSKIKELRIAENLTQEKLAEELNVSFQSISRWENGISTPDISLIPAIARFFGVSTDYLFGLQD”, the “soluble fraction (log2)” value falls from -1.15 to -1.82.

Going from “HMNNLPDFIKQLRKENNLTQEYVASEIGVSRPTYEQIEKGKRELTISEAEKLAKIFNIPLENFLQGKKGV” to “HMNNPLPDLLKYFRKKKHLTQEQVAKQLSVSRASYASYETGRIIPGMQHIMELSRILEHDFLFAYTLAVQ”, the “soluble fraction (log2)” value falls from 0.122 to -2.41.

Going from “HMNNPNFAIQKYVTGSDIKRVRKTLRLTQKKFAELVGVSKATMERWETKEDKITGPVVLLLKILEDHPEY” to “HMNNQKATAVKVASGIVNLRSGPATSYETLDTVATGETLSVLAEKDGWFQVSRAGRTGWVAGWVVDVIRE”, the “soluble fraction (log2)” value rises from -1.55 to -0.499.

Compared with “HMNNSSIGERLKYQRKIKGYSQEELADRTNVTVRTIQRIEKEEVSPHLNTIKLLAIALDIEVDELVAL”, “HMNNSVAYSTFLNDIRTNTLKDVDMTSNSETINVTKKDGTKYQTVMPMYDRDLLADLSKTDATVTGQP” is higher in “soluble fraction (log2)” value: -2.68 for the first, 0.562 for the second.

“HMNNTIKFSVDIKNSGKRLDIFLSENVTQYTRSYLKRLIENSHVKLNNKILNSPSTKVKFQDQIIINNIE” and “HMNNTIKFSVDTTNSGKRLDIFLAENIKQFTRSYLKKIISNNQVKLNNLVANSPSIKVKHSDLILINILE” are within 0.2 log units of each other in “soluble fraction (log2)” value: -2.88 for the first, -2.75 for the second.

Going from “HMNNTVLSSVKSINMFLDANGGDAGQAFRIYNNTNPDSNPTESTYIFKVAEDGNTFVKGYLNLNGTTL” to “HMNNVRIEHIDTIGTVRLHKKRGVKRVSLRIHQSGEIRVTQPLYLPFSAGVLFAKSHTEWIMKQKQK”, the “soluble fraction (log2)” value rises from -0.267 to 0.0763.

First: HMNNWRRSLEREVTASLARGDRDIFDGLNRSFEAALITKALEHTGGRRIEAATLLGIGRNTLTRKIQDLGL
Second: HMNNYEGIVKSVSNSNVYIQVAGRTIGYTISPHTIIMVNGKNVPASELMPGQHVSYTNKGSKLSYININS
The “soluble fraction (log2)” value of the first is lower: -2.11 for the first, -1.17 for the second.

Source: the domain aggregation screens of Martell et al. (2025)
